Legend:
Experiment in all cases: holdup assay
Set-up in all cases: key: below the threshold = too weak to quantify, mostly under pKd 3.1 to 4
LIMK2, P53671 = target: LIMK2, P53671
SNTB1, Q13884 = target: T1, SNTB1, Q13884
T1 sequence (Q13884 107-205, limits assumed, looked up): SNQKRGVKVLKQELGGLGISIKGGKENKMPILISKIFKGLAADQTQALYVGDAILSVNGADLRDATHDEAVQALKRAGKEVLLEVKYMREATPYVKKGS

RAPGEF6, Q8TEU7 = target: T2, RAPGEF6, Q8TEU7
T2 sequence (Q8TEU7 525-625, limits assumed, looked up): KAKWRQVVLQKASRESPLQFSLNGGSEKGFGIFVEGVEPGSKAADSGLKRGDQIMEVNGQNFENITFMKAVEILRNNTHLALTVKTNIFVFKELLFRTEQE

GRIP2_3, Q9C0E4 = target: GRIP2_3, Q9C0E4
MPDZ_10, O75970 = target: T3, MPDZ_10, O75970
T3 sequence (O75970 1624-1722, limits assumed, looked up): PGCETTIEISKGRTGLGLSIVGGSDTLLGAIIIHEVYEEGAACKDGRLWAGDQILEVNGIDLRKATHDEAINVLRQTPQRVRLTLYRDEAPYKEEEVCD

SCRIB_2, Q14160 = target: SCRIB_2, Q14160
DLG1_1, Q12959 = target: DLG1_1, Q12959
APBA2_1, Q99767 = target: T4, APBA2_1, Q99767
T4 sequence (Q99767 563-664, limits assumed, looked up): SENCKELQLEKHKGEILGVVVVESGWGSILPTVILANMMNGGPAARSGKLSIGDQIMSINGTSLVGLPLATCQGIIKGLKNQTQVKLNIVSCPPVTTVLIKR

IL16_3, Q14005 = target: IL16_3, Q14005
TJP1_2, Q07157 = target: TJP1_2, Q07157
MPP6, Q9NZW5 = target: T5, MPP6, Q9NZW5
T5 sequence (Q9NZW5 125-219, limits assumed, looked up): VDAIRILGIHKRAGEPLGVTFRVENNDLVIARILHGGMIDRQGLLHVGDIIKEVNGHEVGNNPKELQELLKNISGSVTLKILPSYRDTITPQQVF

SCRIB_3, Q14160 = target: SCRIB_3, Q14160
NHERF4_1, Q86UT5-2 = target: NHERF4_1, Q86UT5-2
IL16_4, Q14005 = target: IL16_4, Q14005
ARHGEF11, O15085 = target: T6, ARHGEF11, O15085
T6 sequence (O15085 42-136, limits assumed, looked up): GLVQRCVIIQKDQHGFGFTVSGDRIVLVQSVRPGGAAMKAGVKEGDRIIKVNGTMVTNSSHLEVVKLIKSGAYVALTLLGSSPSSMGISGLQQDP

APBA2_2, Q99767 = target: T7, APBA2_2, Q99767
T7 sequence (Q99767 654-744, limits assumed, looked up): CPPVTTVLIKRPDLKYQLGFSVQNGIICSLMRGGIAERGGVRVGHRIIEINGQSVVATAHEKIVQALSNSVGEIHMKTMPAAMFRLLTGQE

PDZD2_2, O15018 = target: T8, PDZD2_2, O15018
T8 sequence (O15018 329-429, limits assumed, looked up): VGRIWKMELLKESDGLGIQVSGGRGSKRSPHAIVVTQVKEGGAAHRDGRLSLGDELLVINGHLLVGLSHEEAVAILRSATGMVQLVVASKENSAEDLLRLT

LNX2_3, Q8N448 = target: T9, LNX2_3, Q8N448
T9 sequence (Q8N448 463-564, limits assumed, looked up): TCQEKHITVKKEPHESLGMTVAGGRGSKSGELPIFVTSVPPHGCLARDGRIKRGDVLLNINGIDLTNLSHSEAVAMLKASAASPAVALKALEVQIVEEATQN

GRASP, Q7Z6J2 = target: GRASP, Q7Z6J2
GRIP2_6, Q9C0E4 = target: GRIP2_6, Q9C0E4
DFNB31_2, Q9P202 = target: T10, DFNB31_2, Q9P202
T10 sequence (Q9P202 274-371, limits assumed, looked up): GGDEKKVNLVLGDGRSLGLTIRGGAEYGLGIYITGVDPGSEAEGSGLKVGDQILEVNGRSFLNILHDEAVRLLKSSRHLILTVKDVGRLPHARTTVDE

TJP2_1, Q9UDY2 = target: TJP2_1, Q9UDY2
SNX27, Q96L92 = target: SNX27, Q96L92
DVL3, Q92997 = target: T11, DVL3, Q92997
T11 sequence (Q92997 244-331, limits assumed, looked up): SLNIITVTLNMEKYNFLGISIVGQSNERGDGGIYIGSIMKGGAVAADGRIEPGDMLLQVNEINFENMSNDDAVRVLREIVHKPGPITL

HTRA1, Q92743 = target: HTRA1, Q92743
DLG5_1, Q8TDM6 = target: DLG5_1, Q8TDM6
[1] = plain residues with an end cap or a label only (N-terminal biotin on a linker: ttds)
[2] = plain residues with an end cap or a label only (N-terminal biotin on a linker: ahx)

SCRIB_3, Q14160, sequence (Q14160 999-1103): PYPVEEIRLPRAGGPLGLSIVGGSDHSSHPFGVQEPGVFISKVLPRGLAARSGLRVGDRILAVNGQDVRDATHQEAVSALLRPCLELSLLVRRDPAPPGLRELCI
DLG5_1, Q8TDM6, sequence (Q8TDM6 617-713): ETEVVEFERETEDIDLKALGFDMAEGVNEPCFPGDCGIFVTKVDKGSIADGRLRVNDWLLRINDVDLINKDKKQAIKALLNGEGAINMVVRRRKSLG
IL16_4, Q14005, sequence (Q14005 1229-1329): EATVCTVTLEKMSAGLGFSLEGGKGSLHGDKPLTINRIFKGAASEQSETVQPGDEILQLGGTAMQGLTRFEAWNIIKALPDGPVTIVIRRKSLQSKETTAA
TJP2_1, Q9UDY2, sequence (Q9UDY2 24-128): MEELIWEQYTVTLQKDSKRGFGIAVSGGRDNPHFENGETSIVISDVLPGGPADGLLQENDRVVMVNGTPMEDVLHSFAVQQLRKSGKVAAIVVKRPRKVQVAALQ
TJP1_2, Q07157, sequence (Q07157 181-274): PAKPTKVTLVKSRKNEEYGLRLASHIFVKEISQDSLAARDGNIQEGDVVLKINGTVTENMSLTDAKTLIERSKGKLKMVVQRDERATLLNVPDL
NHERF4_1, Q86UT5-2, sequence (Q86UT5 other isoform, or with tags, fused parts or gaps): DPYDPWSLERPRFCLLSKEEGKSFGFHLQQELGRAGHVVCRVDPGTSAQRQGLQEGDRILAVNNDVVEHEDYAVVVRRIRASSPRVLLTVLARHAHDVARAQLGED
LIMK2, P53671, sequence (P53671 143-248): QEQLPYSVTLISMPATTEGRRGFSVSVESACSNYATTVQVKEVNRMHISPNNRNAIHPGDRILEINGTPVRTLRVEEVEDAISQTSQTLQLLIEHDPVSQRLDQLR
GRASP, Q7Z6J2, sequence (Q7Z6J2 96-193): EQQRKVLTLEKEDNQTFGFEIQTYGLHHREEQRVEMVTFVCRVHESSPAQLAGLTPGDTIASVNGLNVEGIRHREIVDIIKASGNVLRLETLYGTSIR
SCRIB_2, Q14160, sequence (Q14160 857-960): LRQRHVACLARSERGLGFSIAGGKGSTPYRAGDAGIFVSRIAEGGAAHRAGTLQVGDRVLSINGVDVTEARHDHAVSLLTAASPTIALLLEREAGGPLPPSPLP
IL16_3, Q14005, sequence (Q14005 1107-1207): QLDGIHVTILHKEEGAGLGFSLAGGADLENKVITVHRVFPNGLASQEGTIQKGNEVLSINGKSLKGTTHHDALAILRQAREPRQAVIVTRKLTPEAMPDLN
GRIP2_3, Q9C0E4, sequence (Q9C0E4 238-339): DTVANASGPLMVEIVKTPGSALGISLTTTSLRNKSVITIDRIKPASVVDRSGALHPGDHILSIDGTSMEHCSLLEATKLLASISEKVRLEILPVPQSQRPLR
GRIP2_6, Q9C0E4, sequence (Q9C0E4 648-740): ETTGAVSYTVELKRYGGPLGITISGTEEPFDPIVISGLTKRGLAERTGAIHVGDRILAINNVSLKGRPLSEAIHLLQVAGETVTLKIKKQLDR
HTRA1, Q92743, sequence (Q92743 360-477): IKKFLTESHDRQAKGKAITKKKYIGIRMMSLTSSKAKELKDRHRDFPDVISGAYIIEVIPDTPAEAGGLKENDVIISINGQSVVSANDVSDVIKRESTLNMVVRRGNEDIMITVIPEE

B1: HPV18-E6, P06463 (peptide)
chain: RLQRRRETQV
- pKd (LIMK2, P53671; [1]): below the threshold
- pKd (SNTB1, Q13884; [1]): 5.23
- pKd (RAPGEF6, Q8TEU7; [1]): below the threshold
- pKd (GRIP2_3, Q9C0E4; [1]): below the threshold
- pKd (MPDZ_10, O75970; [1]): 3.56
- pKd (SCRIB_2, Q14160; [1]): 4.44
- pKd (DLG1_1, Q12959; [1]): 5.26
- pKd (APBA2_1, Q99767; [1]): below the threshold
- pKd (IL16_3, Q14005; [1]): below the threshold
- pKd (TJP1_2, Q07157; [1]): below the threshold
- pKd (MPP6, Q9NZW5; [1]): below the threshold
- pKd (SCRIB_3, Q14160; [1]): 4.84
- pKd (NHERF4_1, Q86UT5-2; [1]): below the threshold
- pKd (IL16_4, Q14005; [1]): below the threshold
- pKd (ARHGEF11, O15085; [1]): 3.66
- pKd (APBA2_2, Q99767; [1]): below the threshold
- pKd (PDZD2_2, O15018; [1]): 3.36
- pKd (LNX2_3, Q8N448; [1]): below the threshold
- pKd (GRASP, Q7Z6J2; [1]): below the threshold
- pKd (GRIP2_6, Q9C0E4; [1]): below the threshold
- pKd (DFNB31_2, Q9P202; [1]): below the threshold
- pKd (TJP2_1, Q9UDY2; [1]): 3.89
- pKd (SNX27, Q96L92; [1]): 4.55
- pKd (DVL3, Q92997; [1]): below the threshold
- pKd (HTRA1, Q92743; [1]): below the threshold
- pKd (DLG5_1, Q8TDM6; [1]): below the threshold

B2: SLC4A7, Q9Y6M7 (peptide)
chain: KKYVDAETSL
- pKd (LIMK2, P53671; [1]): below the threshold
- pKd (SNTB1, Q13884; [1]): 4.46
- pKd (RAPGEF6, Q8TEU7; [1]): below the threshold
- pKd (GRIP2_3, Q9C0E4; [1]): below the threshold
- pKd (MPDZ_10, O75970; [1]): below the threshold
- pKd (SCRIB_2, Q14160; [1]): 3.77
- pKd (DLG1_1, Q12959; [1]): below the threshold
- pKd (APBA2_1, Q99767; [1]): below the threshold
- pKd (IL16_3, Q14005; [1]): below the threshold
- pKd (TJP1_2, Q07157; [1]): below the threshold
- pKd (MPP6, Q9NZW5; [1]): below the threshold
- pKd (SCRIB_3, Q14160; [1]): 5.09
- pKd (NHERF4_1, Q86UT5-2; [1]): 3.49
- pKd (IL16_4, Q14005; [1]): 3.53
- pKd (ARHGEF11, O15085; [1]): 3.97
- pKd (APBA2_2, Q99767; [1]): below the threshold
- pKd (PDZD2_2, O15018; [1]): 4.06
- pKd (LNX2_3, Q8N448; [1]): below the threshold
- pKd (GRASP, Q7Z6J2; [1]): 3.73
- pKd (GRIP2_6, Q9C0E4; [1]): below the threshold
- pKd (DFNB31_2, Q9P202; [1]): 3.5
- pKd (TJP2_1, Q9UDY2; [1]): below the threshold
- pKd (SNX27, Q96L92; [1]): 5.71
- pKd (DVL3, Q92997; [1]): below the threshold
- pKd (HTRA1, Q92743; [1]): 3.71
- pKd (DLG5_1, Q8TDM6; [1]): below the threshold

B3: TJP3, O95049 (peptide)
chain: GYDWGPATDL
- pKd (LIMK2, P53671; [2]): below the threshold
- pKd (SNTB1, Q13884; [2]): 4.08
- pKd (RAPGEF6, Q8TEU7; [2]): below the threshold
- pKd (GRIP2_3, Q9C0E4; [2]): below the threshold
- pKd (MPDZ_10, O75970; [2]): below the threshold
- pKd (SCRIB_2, Q14160; [2]): 3.78
- pKd (DLG1_1, Q12959; [2]): below the threshold
- pKd (APBA2_1, Q99767; [2]): below the threshold
- pKd (IL16_3, Q14005; [2]): below the threshold
- pKd (TJP1_2, Q07157; [2]): below the threshold
- pKd (MPP6, Q9NZW5; [2]): below the threshold
- pKd (SCRIB_3, Q14160; [2]): 4.93
- pKd (NHERF4_1, Q86UT5-2; [2]): 3.72
- pKd (IL16_4, Q14005; [2]): below the threshold
- pKd (ARHGEF11, O15085; [2]): 4.6
- pKd (APBA2_2, Q99767; [2]): below the threshold
- pKd (PDZD2_2, O15018; [2]): 4.46
- pKd (LNX2_3, Q8N448; [2]): below the threshold
- pKd (GRASP, Q7Z6J2; [2]): 4.14
- pKd (GRIP2_6, Q9C0E4; [2]): below the threshold
- pKd (DFNB31_2, Q9P202; [2]): below the threshold
- pKd (TJP2_1, Q9UDY2; [2]): below the threshold
- pKd (SNX27, Q96L92; [2]): 3.64
- pKd (DVL3, Q92997; [2]): below the threshold
- pKd (HTRA1, Q92743; [2]): 4.12
- pKd (DLG5_1, Q8TDM6; [2]): below the threshold
